Publication PMC3202057 (Journal of molecular biology, 2011)
Values belong to the binder of their own block, whether it stands above or below them.

Target: T1, N-terminal effector PYRIN domain of NLRP12 (residues 1-98) (human, UniProt P59046 1-98)
T1 sequence: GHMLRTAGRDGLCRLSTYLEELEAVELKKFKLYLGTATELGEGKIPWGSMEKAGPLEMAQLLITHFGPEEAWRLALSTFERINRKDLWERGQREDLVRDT
Experiment: NMR titration

Kd: ≥ 50 µM
B1: FAF-1 UBA domain and linker region (residues 1-99) (domain or fragment, UniProt Q9UNN5 1-99, looked up)
chain: MASNMDREMILADFQACTGIENIDEAITLLEQNNWDLVAAINGVIPQENGILQSEYGGETIPGPAFNPASHPASAPTSSSSSAFRPVMPSRQIVERQPR

Kd: ≥ 150 µM
B2: FAF-1 UBA domain (residues 1-57) (domain or fragment, UniProt Q9UNN5 1-57, looked up)
chain: MASNMDREMILADFQACTGIENIDEAITLLEQNNWDLVAAINGVIPQENGILQSEYG
